According to patent publication US20220396616A1:

Key:
human CLDN18.1 (human) [1] = target: human CLDN18.1 (human) (UniProt P56856); test: flow cytometry on CLDN18.1-HEK293 cells, 100 µg/mL antibody, replicate 2
human CLDN18.1 (human) [2] = target: human CLDN18.1 (human) (UniProt P56856); test: flow cytometry on CLDN18.1-HEK293 cells, 100 µg/mL antibody, replicate 1
human CLDN18.1 (human) [3] = target: human CLDN18.1 (human) (UniProt P56856); test: flow cytometry on CLDN18.1-HEK293 cells, 100 µg/mL antibody, replicate 3

Chain of human CLDN18.1 (human) (P56856 whole entry): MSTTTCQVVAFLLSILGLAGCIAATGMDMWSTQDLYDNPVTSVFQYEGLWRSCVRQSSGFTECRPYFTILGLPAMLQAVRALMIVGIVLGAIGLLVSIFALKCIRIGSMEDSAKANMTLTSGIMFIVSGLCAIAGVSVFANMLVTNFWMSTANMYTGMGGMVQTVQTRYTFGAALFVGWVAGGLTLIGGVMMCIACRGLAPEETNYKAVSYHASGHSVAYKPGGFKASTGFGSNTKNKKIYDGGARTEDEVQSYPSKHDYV

With hIgG1 isotype antibody the positive rate of cell binding (human CLDN18.1 (human) [1]) was 0.233%, the positive rate of cell binding (human CLDN18.1 (human) [2]) was 0.063% and the positive rate of cell binding (human CLDN18.1 (human) [3]) was 0.115%.
